These results are taken from patent US20100184672A1 (published 2010).

In general, Kd refers to the free concentration of one partner at which half of the binding sites on the other are occupied at equilibrium, for simple one-to-one binding.

Experiment [1] deals with T1, glycocalicin (the proteolytic fragment of GPIb) (human, UniProt P07359 17-506).
T1 construct: domain: glycocalicin (the proteolytic fragment of GPIb); Purified from human platelets; coated on the SPR sensor
Put plainly: SPR, comparison of Kd with that of VWF A1 on glycocalicin. An excerpt: (§1) The sensorgrams at different concentrations were obtained and normalized by subtracting background signals from the glycocalicin surface.

In experiment [2] the target is T1, glycocalicin (the proteolytic fragment …). Put plainly: SPR, ligand perfused over glycocalicin-coated sensor, Langmuir one-to-one fit.
Description: as §1
(In general: SPR reads the build-up and loss of mass on a sensor chip optically.)

B1: Activated protein C (APC), human plasma-derived (enzyme)
chain 1: ANSFLEELRHSSLERECIEEICDFEEAKEIFQNVDDTLAFWSKHVDGDQCLVLPLEHPCASLCCGHGTCIDGIGSFSCDCRSGWEGRFCQREVSFLNCSLDNGGCTHYCLEEVGWRRCSCAPGYKLGDDLLQCHPAVKFPCGRPWKRMEKKRSHL
chain 2: LIDGKMTRRGDSPWQVVLLDSKKKLACGAVLIHPSWVLTAAHCMDESKKLLVRLGEYDLRRWEKWELDLDIKEVFVHPNYSKSTTDNDIALLHLAQPATLSQTIVPICLPDSGLAERELNQAGQETLVTGWGYHSSREKEAKRNRTFVLNFIKIPVVPHNECSEVMSNMVSENMLCAGILGDRQDACEGDSGGPMVASFHGTWFLVGLVSWGEGCGLLHNYGVYTKVSRYLDWIHGHIRDKEAPQKSWAP
notes: mature
As for B1, in experiment [1], the “fold difference against the interaction of GPIb and VWF A1” value is roughly 10 fold. Besides, the Kd in experiment [2] turned out to be 308 nM.
